This data set deals with the molecule itself. Put plainly: aggregation assay of S2 cells transfected with fasciclin IV (homophilic adhesion). An excerpt: To ask whether fasciclin IV can function as a homophilic cell adhesion molecule, the fasciclin IV cDNA with the complete ORF was placed under the control of the inducible metallothionein promoter (Bunch et al. 1988). transfected into S2 cells, and assayed for its ability to promote adhesion in normally non-adhesive S2 cells. Following induction with copper, fasciclin IV was synthesized in these S2 cells as shown by Western blot analysis and cell surface staining of induced S2 cells with the polyclonal antiserum described above.
A restriction fragment containing the full length fasciclin IV cDNA was cloned into pRmHa-3 (Bunch et al, 1988) and co-transformed into Drosophila S2 cells (Schneider, 1972) with the plasmid pPC4 (Jokerst et al., 1989), which confers a-amanitin resistance. S2 cells were transformed using the Lipofectin Reagent and recommended protocol (BRL) with minor modifications. All other S2 cell manipulations are essentially as described (Snow et al., 1989), including adhesion assays. Fasciclin IV expression in transformed cell lines was induced for adhesion assays and histology by adding CuSO₄ to 0.7 mM and incubating for at least 48 hrs. […] Amount of protein per lane in each sample loaded: fasciclin IV protein, ˜5 ng; S2 cell membranes, […]; grasshopper membranes […]. […]

B1: Grasshopper fasciclin IV (now called G-Semaphorin I) (other)
chain: WVNDVSPKMYVQFGEERVQRFLGNESHKDHFKLLEKDHNSLLVGARNIVYNISLRDLTEFTEQRIEWHSSGAHRELCYLKGKSEDDCQNYIRVLAKIDDDRVLICGTNAYKPLCRHYALKDGDYVVEKEYEGRGLCPFDPDHNSTAIYSEGQLYSATVADFSGTDPLIYRGPLRTERSDLKQLNAPNFVNTMEYNDFIFFFFRETAVEYINCGKAIYSRVARVCKHDKGGPHQGGDRWTSFLKSRLNCSVPGDYPFYFNEIQSTSDIIEGNYGGQVEKLIYGVFTTPVNSIGGSAVCAFSMKSILESFDGPFKEQETMNSNWLAVPSLKVPEPRPGQCVNDSRTLPDVSVNFVKSHTLMDEAVPAFFTRPILIRISLQYRFTKIAVDQQVRTPDGKAYDVLFIGTDDGKVIKALNSASFDSSDTVDSVVIEELQVLPPGVPVKNLYVVRMDGDDSKLVVVSDDEILAIKLHRCGSDKITNCRECVSLQDPYCAWDNVELKCTAVGSPDWSAGKRRFIQNISLGEHKACGGRPQTEIVASPVPTQPTTKSSGDPVHSIHQAEFEPEIDNEIVIGVDDSNVIPNTLAEINHAGSKLPSSQEKLPIYTAETLTIAIVTSCLGALVVGFISGFLFSRRCRGEDYTDMPFPDQRHQLNRLTEAGLNADSPYLPPCANNKAAINLVLNVPPKNANGKNANSSAENKPIQKVKKTYI
modifications: N-linked oligosaccharides (shown by N-Glycanase treatment)
notes: also called 6F8 antigen; grasshopper Semaphorin I
For the protein B1, the binding result is on record as “no binding”.

Values taken from US20080312158A1 (University of California, published 2008).
